From paper PMC9226502

B1: MutL^WT (Escherichia coli MutL protein, wild type) [Escherichia coli] / MutS [not stated] (parent)
chain 1: MPIQVLPPQLANQIAAGEVVERPASVVKELVENSLDAGATRIDIDIERGGAKLIRIRDNGCGIKKDELALALARHATSKIASLDDLEAIISLGFRGEALASISSVSRLTLTSRTAEQQEAWQAYAEGRDMNVTVKPAAHPVGTTLEVLDLFYNTPARRKFLRTEKTEFNHIDEIIRRIALARFDVTINLSHNGKIVRQYRAVPEGGQKERRLGAICGTAFLEQALAIEWQHGDLTLRGWVADPNHTTPALAEIQYCYVNGRMMRDRLINHAIRQACEDKLGADQQPAFVLYLEIDPHQVDVNVHPAKHEVRFHQSRLVHDFIYQGVLSVLQQQLETPLPLDDEPQPAPRSIPENRVAAGRNHFAEPAAREPVAPRYTPAPASGSRPAAPWPNAQPGYQKQQGEVYRQLLQTPAPMQKLKAPEPQEPALAANSQSFGRVLTIVHSDCALLERDGNISLLSLPVAERWLRQAQLTPGEAPVCAQPLLIPLRLKVSAEEKSALEKAQSALAELGIDFQSDAQHVTIRAVPLPLRQQNLQILIPELIGYLAKQSVFEPGNIAQWIARNLMSEHAQWSMAQAITLLADVERLCPQLVKTPPGGLLQSVDLHPAIKALKDE
chain 2: MSAIENFDAHTPMMQQYLRLKAQHPEILLFYRMGDFYELFYDDAKRASQLLDISLTKRGASAGEPIPMAGIPYHAVENYLAKLVNQGESVAICEQIGDPATSKGPVERKVVRIVTPGTISDEALLQERQDNLLAAIWQDSKGFGYATLDISSGRFRLSEPADRETMAAELQRTNPAELLYAEDFAEMSLIEGRRGLRRRPLWEFEIDTARQQLNLQFGTRDLVGFGVENAPRGLCAAGCLLQYAKDTQRTTLPHIRSITMEREQDSIIMDAATRRNLEITQNLAGGAENTLASVLDCTVTPMGSRMLKRWLHMPVRDTRVLLERQQTIGALQDFTAGLQPVLRQVGDLERILARLALRTARPRDLARMRHAFQQLPELRAQLETVDSAPVQALREKMGEFAELRDLLERAIIDTPPVLVRDGGVIASGYNEELDEWRALADGATDYLERLEVRERERTGLDTLKVGFNAVHGYYIQISRGQSHLAPINYMRRQTLKNAERYIIPELKEYEDKVLTSKGKALALEKQLYEELFDLLLPHLEALQQSASALAELDVLVNLAERAYTLNYTCPTFIDKPGIRITEGRHPVVEQVLNEPFIANPLNLSPQRRMLIITGPNMGGKSTYMRQTALIALMAYIGSYVPAQKVEIGPIDRIFTRVGAADDLASGRSTFMVEMTETANILHNATEYSLVLMDEIGRGTSTYDGLSLAWACAENLANKIKALTLFATHYFELTQLPEKMEGVANVHLDALEHGDTIAFMHSVQDGAASKSYGLAVAALAGVPKEVIKRARQKLRELESISPNAAATQVDGTQMSLLSVPEETSPAVEALENLDPDSLTPRQALEWIYRLKSLV

Variants of: B1
Test: BLI
Conditions: with MutS, 100 nM MutS, end-blocked DNA substrate with a single mismatch, read off a plot; for response: top green curve (taken as 150 nM MutL), peak at about 200 s, parent: 3.3

chain 1 H270A
koff (19 nM MutL, parent: 0.0053): 0.0063 s⁻¹ | koff (37 nM MutL, parent: 0.0032): 0.0047 s⁻¹ | koff (75 nM MutL, parent: 0.0031): 0.0038 s⁻¹ | koff (150 nM MutL, parent: 0.0033): 0.0035 s⁻¹ | response: 2.7 nm

chain 1 H319A
koff (19 nM MutL, parent: 0.0053): 0.006 s⁻¹ | koff (37 nM MutL, parent: 0.0032): 0.0046 s⁻¹ | koff (75 nM MutL, parent: 0.0031): 0.0036 s⁻¹ | koff (150 nM MutL, parent: 0.0033): 0.0038 s⁻¹ | response: 2.7 nm

chain 1 H270A H319A
koff (19 nM MutL, parent: 0.0053): 0.0096 s⁻¹ | koff (37 nM MutL, parent: 0.0032): 0.0092 s⁻¹ | koff (75 nM MutL, parent: 0.0031): 0.0082 s⁻¹ | koff (150 nM MutL, parent: 0.0033): 0.0075 s⁻¹ | response: 2.1 nm
